# Source: US9487580
# T1: recombinant human IL-23 (p19/p40 heterodimer) (human, UniProt Q9NPF7)
# T1 chain 1: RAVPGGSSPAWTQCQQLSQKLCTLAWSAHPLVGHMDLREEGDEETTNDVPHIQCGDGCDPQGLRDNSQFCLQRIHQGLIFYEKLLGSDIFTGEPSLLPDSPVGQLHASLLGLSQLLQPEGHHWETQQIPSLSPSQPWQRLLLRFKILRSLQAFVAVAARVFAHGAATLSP
# T1 chain 2: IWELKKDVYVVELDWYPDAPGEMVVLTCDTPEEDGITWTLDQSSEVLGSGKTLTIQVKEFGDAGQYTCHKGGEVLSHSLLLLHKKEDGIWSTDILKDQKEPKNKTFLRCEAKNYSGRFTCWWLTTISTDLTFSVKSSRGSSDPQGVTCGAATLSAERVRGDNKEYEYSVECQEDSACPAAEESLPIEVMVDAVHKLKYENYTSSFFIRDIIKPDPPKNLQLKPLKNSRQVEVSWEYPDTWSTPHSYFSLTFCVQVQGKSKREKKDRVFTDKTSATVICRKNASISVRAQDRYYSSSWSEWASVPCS
# B1: Antibody B (antibody, V domains shown)
# VH: QVQLQESGPGLVKPSQTLSLTCTVSGGSISSGGYYWSWIRQHPGKGLEWIGHIHYSGNTYYNPSLKSRVTISVDTSKNQFSLKLSSVTAADTAVYYCARNRGFYYGMDVWGQGTTVTVSS
# VL: DIQMTQSPSSVSASVGDRVTITCRASQVISSWLAWYQQKPGKAPSLLIYAASSLQSGVPSRFSGSVSGTDFTLTISSLQPEDFATYYCQQANSFPFTFGPGTKVDFK
# Molecular target: T1, recombinant human IL-23 (p19/p40 …)
# Assay: KinExA
binder,measurement,value
B1,Kd,3.99 pM
